Data published in paper PMC11969024 (2025).

B1: peptide HD2 (from tick evasin EVA4) / CCL22 (biotinylated, synthetic) (parent complex)
chain 1: EEDDYTAYAPLTCYFT
chain 2: GPYGANMEDSVCCRDYVRYRLPLRVVKHFYWTSDSCPRPGVVLLTFRDKEICADPRVPWVKMILNKLSQ
B2: peptide HD2 (from tick evasin EVA4) / CCL11 (biotinylated, synthetic) (parent complex)
chain 1: EEDDYTAYAPLTCYFT
chain 2: not shown

Variants of: B1

Variant	enrichment
chain 1 D3H	-5.38 log2 (difference from the parental peptide)
chain 1 A7I	-3 log2 (difference from the parental peptide)
chain 1 Y8L	-7.77 log2 (difference from the parental peptide)
chain 1 T6L	-2.3 log2 (difference from the parental peptide)

Variants of: B2

Variant	enrichment
chain 1 Y14R	-8.35 log2 (difference from the parental peptide)
chain 1 Y14V	-3.71 log2 (difference from the parental peptide)
chain 1 Y14D	-4.78 log2 (difference from the parental peptide)
chain 1 Y14T	-4.02 log2 (difference from the parental peptide)
chain 1 Y14F	0.149 log2 (difference from the parental peptide)
chain 1 Y5A	-6.65 log2 (difference from the parental peptide)
chain 1 Y5G	-5.68 log2 (difference from the parental peptide)
chain 1 Y5M	-1.54 log2 (difference from the parental peptide)
chain 1 Y5S	-5.35 log2 (difference from the parental peptide)
chain 1 Y5F	0.0717 log2 (difference from the parental peptide)
chain 1 Y5N	-5.96 log2 (difference from the parental peptide)
chain 1 Y5H	-6.32 log2 (difference from the parental peptide)
chain 1 P10Y	-5.97 log2 (difference from the parental peptide)
chain 1 C13Q	-8.37 log2 (difference from the parental peptide)
chain 1 C13M	-6.39 log2 (difference from the parental peptide)
chain 1 C13Y	-6.32 log2 (difference from the parental peptide)
chain 1 C13S	-5.22 log2 (difference from the parental peptide)
chain 1 L11S	-0.475 log2 (difference from the parental peptide)
chain 1 L11N	-4.38 log2 (difference from the parental peptide)
chain 1 L11R	-0.735 log2 (difference from the parental peptide)
chain 1 T6M	-0.715 log2 (difference from the parental peptide)
chain 1 T6N	1.61 log2 (difference from the parental peptide)
chain 1 T6I	-5.35 log2 (difference from the parental peptide)
chain 1 F15K	-4.78 log2 (difference from the parental peptide)

Variant	enrichment
chain 1 F15N	-1.58 log2 (difference from the parental peptide)
chain 1 F15V	0.59 log2 (difference from the parental peptide)
chain 1 A7F	-1.71 log2 (difference from the parental peptide)
chain 1 A7S	0.886 log2 (difference from the parental peptide)
chain 1 A7E	2.59 log2 (difference from the parental peptide)
chain 1 A7R	0.794 log2 (difference from the parental peptide)
chain 1 A7P	0.578 log2 (difference from the parental peptide)
chain 1 A7N	1.29 log2 (difference from the parental peptide)
chain 1 A7M	1.99 log2 (difference from the parental peptide)
chain 1 E1S	-0.538 log2 (difference from the parental peptide)
chain 1 E1T	-0.645 log2 (difference from the parental peptide)
chain 1 E1G	-0.291 log2 (difference from the parental peptide)
chain 1 E2L	-1.7 log2 (difference from the parental peptide)
chain 1 E2A	-0.825 log2 (difference from the parental peptide)
chain 1 E2V	-1.61 log2 (difference from the parental peptide)
chain 1 E2T	-2.27 log2 (difference from the parental peptide)
chain 1 E2W	-2.09 log2 (difference from the parental peptide)
chain 1 E2R	-4.24 log2 (difference from the parental peptide)
chain 1 E2D	1.39 log2 (difference from the parental peptide)
chain 1 E2H	-2.49 log2 (difference from the parental peptide)
chain 1 Y8W	-1.91 log2 (difference from the parental peptide)
chain 1 Y8N	-5.38 log2 (difference from the parental peptide)
chain 1 Y8A	-4.4 log2 (difference from the parental peptide)
chain 1 D4T	-4.2 log2 (difference from the parental peptide)

Variant	enrichment
chain 1 D4S	-3.54 log2 (difference from the parental peptide)
chain 1 D4K	-5.45 log2 (difference from the parental peptide)
chain 1 D4I	-4.32 log2 (difference from the parental peptide)
chain 1 D4G	-4.8 log2 (difference from the parental peptide)
chain 1 D4P	-3.25 log2 (difference from the parental peptide)
chain 1 D4Y	-1.9 log2 (difference from the parental peptide)
chain 1 D4W	-3.16 log2 (difference from the parental peptide)
chain 1 T16A	1.44 log2 (difference from the parental peptide)
chain 1 T16K	-0.03 log2 (difference from the parental peptide)
chain 1 T16L	0.412 log2 (difference from the parental peptide)
chain 1 T16C	-0.0325 log2 (difference from the parental peptide)
chain 1 T16W	-0.88 log2 (difference from the parental peptide)
chain 1 T16Q	1.62 log2 (difference from the parental peptide)
chain 1 D3I	-3.65 log2 (difference from the parental peptide)
chain 1 D3M	-2.72 log2 (difference from the parental peptide)
chain 1 T12P	-3.61 log2 (difference from the parental peptide)
chain 1 T12F	-3.13 log2 (difference from the parental peptide)
chain 1 T12K	-5.35 log2 (difference from the parental peptide)
chain 1 A9V	-5.98 log2 (difference from the parental peptide)
chain 1 A9E	0.893 log2 (difference from the parental peptide)
chain 1 A9Y	-4.85 log2 (difference from the parental peptide)
chain 1 A9S	-1.28 log2 (difference from the parental peptide)
chain 1 A9R	-1.6 log2 (difference from the parental peptide)
